Values quoted from earlier work, collected in PMC9691366, “Modulating the pharmacokinetic profile of Actinium-225-labeled macropa-derived radioconjugates by dual targeting of PSMA and albumin” (Theranostics, 2022).

Tested on: tumor
Conditions: in vivo, 24 h; cited from earlier work

[^177Lu]Lu-PSMA-617
tumor uptake: 11.20 ± 4.17 %ID/g
